Legend:
[1] = molecular target: T1, BSA (UniProt P02769 25-607); experiment: ELISA, 100 nM coated protein
T1 construct: Negative control

[2] = molecular target: T2, CTLA-4 (UniProt P16410 36-161, limits assumed); experiment: ELISA, 100 nM coated protein
T2 construct: Negative control; The construct is not described
T2 sequence (looked up): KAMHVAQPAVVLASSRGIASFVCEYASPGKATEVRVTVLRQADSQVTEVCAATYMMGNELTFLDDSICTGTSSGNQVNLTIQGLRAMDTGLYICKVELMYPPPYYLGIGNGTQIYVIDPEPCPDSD

[3] = molecular target: CD71 (on cancer stem cells and cancer cell lines) (UniProt P02786 1-760, limits assumed); experiment: cell-based or functional assay
CD71 (on cancer stem cells and cancer cell lines), sequence (P02786 whole entry): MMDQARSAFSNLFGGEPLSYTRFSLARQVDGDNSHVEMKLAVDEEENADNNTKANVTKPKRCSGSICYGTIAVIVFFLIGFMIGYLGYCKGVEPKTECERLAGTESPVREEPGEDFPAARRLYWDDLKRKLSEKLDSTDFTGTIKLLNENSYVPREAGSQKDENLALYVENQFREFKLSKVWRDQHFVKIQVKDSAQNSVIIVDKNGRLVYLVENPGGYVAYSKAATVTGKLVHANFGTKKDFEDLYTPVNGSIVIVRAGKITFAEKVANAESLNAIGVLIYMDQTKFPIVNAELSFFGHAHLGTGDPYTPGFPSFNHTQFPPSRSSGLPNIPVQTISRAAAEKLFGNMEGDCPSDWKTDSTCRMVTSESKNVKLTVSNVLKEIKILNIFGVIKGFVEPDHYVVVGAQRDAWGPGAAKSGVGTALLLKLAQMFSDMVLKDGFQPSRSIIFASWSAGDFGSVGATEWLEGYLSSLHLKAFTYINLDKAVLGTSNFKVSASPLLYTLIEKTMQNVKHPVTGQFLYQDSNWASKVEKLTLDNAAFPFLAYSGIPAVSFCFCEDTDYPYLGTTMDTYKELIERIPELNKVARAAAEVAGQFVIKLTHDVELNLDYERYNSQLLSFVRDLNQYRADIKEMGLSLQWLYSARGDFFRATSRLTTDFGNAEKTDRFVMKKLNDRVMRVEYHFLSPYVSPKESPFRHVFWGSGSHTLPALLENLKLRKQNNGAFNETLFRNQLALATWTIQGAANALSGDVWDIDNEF

T1 sequence (P02769 25-607 limits assumed): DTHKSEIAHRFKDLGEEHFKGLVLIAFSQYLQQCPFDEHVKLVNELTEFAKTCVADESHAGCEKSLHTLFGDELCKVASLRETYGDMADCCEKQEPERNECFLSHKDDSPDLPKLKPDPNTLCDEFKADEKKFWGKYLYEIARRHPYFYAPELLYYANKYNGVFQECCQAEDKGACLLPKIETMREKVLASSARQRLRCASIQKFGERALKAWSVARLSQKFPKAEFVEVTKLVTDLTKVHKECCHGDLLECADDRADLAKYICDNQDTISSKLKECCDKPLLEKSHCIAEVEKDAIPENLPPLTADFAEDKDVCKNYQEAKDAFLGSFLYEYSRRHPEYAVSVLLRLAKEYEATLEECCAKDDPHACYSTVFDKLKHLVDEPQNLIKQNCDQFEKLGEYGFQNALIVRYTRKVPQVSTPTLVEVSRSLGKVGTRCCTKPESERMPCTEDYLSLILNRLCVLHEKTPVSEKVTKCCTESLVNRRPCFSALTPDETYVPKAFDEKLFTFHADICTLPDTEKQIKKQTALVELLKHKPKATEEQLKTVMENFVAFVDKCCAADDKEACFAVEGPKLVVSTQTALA

binding result [1]: no binding (tested: 1μg/mL) | binding result [2]: no binding (tested: 1μg/mL) | EC50 세포성장 저해, parent암 세포주 (AlamarBlue) [3]: 18.3 nM | EC50 세포성장 저해, 암 줄기세포주 (AlamarBlue) [3]: 53.3 nM
B1: 1E12 항체 (antibody, V domains shown)
VH: QMQLVQSGAEVKKPGASVKVSCKASGYIFTDYYMHWVRQAPGQGLEWMGGISPIFGTANYAQNFQGRVTITADESTTTAYMELSNLRSEDTAVYYCAKDGAGPEYYYYGLDVWGQGTSVTVSS
VL: QSALTQPPSVSGSPGQSVTISCTGTSSDIGGYNYVSWYQHHPGKAPKLVISEVTKRPSGVPGRFSGSKSGNTASLTVSGLQAEDEADYYCSSYSDSDNLLFGGGTKLTVLG
notes: also called b) 단클론 항체

From patent KR20200132110A (dated 2020)
